This note sets out measurements from patent publication US20190170753A1 (ICAHN SCHOOL OF MEDICINE AT MOUNT SINAI, published 2019).

Where no end group is shown, it is not given here.

One assay deals with T1, HCV core peptide 48 (hepatitis C virus, HELM PEPTIDE1{[O=C1N[C@H]2[C@H](CS[C@H]2CCCCC(=O)[*:2])N1].S.G.S.G.G.W.L.L.S.P.R.G.S.R.P.S.W.G.P.[am]}$$$$V2.0; SMILES …).
T1 construct: also called aa 95-109
T1 peptide: SGSGGWLLSPRGSRPSWGP
Nature of the assay: peptide EIA, 2 ug/mL IgG (summary table).

In the next assay the target is T2, HCV core peptide 49 (hepatitis C virus, HELM PEPTIDE1{[O=C1N[C@H]2[C@H](CS[C@H]2CCCCC(=O)[*:2])N1].S.G.S.G.L.L.S.P.R.G.S.R.P.S.W.G.P.T.D.[am]}$$$$V2.0; SMILES …).
T2 peptide: SGSGLLSPRGSRPSWGPTD
Nature of the assay: peptide EIA, 2 ug/mL IgG (summary table).

The target of the next assay is T3, HCV core peptide 50 (hepatitis C virus, HELM PEPTIDE1{[O=C1N[C@H]2[C@H](CS[C@H]2CCCCC(=O)[*:2])N1].S.G.S.G.S.P.R.G.S.R.P.S.W.G.P.T.D.P.R.[am]}$$$$V2.0; SMILES …).
T3 construct: also called aa 99-113
T3 peptide: SGSGSPRGSRPSWGPTDPR
Briefly: peptide EIA, 2 ug/mL IgG (summary table).

The target in the next assay is T4, HCV core peptide 52 (hepatitis C virus, HELM PEPTIDE1{[O=C1N[C@H]2[C@H](CS[C@H]2CCCCC(=O)[*:2])N1].S.G.S.G.S.R.P.S.W.G.P.T.D.P.R.R.R.S.R.[am]}$$$$V2.0; SMILES …).
T4 peptide: SGSGSRPSWGPTDPRRRSR
Briefly: peptide EIA, 2 ug/mL IgG (summary table).

The target in another assay is T5, HCV core peptide 54 (hepatitis C virus, HELM PEPTIDE1{[O=C1N[C@H]2[C@H](CS[C@H]2CCCCC(=O)[*:2])N1].S.G.S.G.W.G.P.T.D.P.R.R.R.S.R.N.L.G.K.[am]}$$$$V2.0; SMILES …).
T5 peptide: SGSGWGPTDPRRRSRNLGK
Briefly: peptide EIA, 2 ug/mL IgG (summary table).

For assay [1], the target named is T6, Mut1T110N biotin labeled HCV core peptide (hepatitis C virus, biotin labeled (position not given)).
T6 peptide: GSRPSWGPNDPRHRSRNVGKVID
Nature of the assay: capture EIA; Ab 62.5 ng/mL; bt-peptide 500 ng/mL.

Assay [2] deals with Mut6T110S biotin labeled HCV core peptide (hepatitis C virus, biotin labeled (position not given)). Nature of the assay: capture EIA; Ab 62.5 ng/mL; bt-peptide 500 ng/mL.
Assay [3] addresses T7, C113WT biotin labeled HCV core peptide (hepatitis C virus, also: biotin labeled, position not given here).
T7 peptide: RGSRPSWGPTD
Nature of the assay: capture EIA; Ab 62.5 ng/mL; bt-peptide 500 ng/mL.

The target in assay [4] is T8, C113T109N biotin labeled HCV core peptide (hepatitis C virus, also: biotin labeled, position not given here).
T8 construct: also called C113T110N
T8 peptide: RGSRPSWGPND
Nature of the assay: capture EIA; Ab 62.5 ng/mL; bt-peptide 500 ng/mL.

Assay [5] deals with T9, 92-133 biotin labeled HCV core peptide (hepatitis C virus, UniProt Q9WMX2 92-133, chain 1: biotin label (bt-pep). Its position and any spacer are not visible in the passages shown.).
T9 construct: Only the label 92-133 is printed
T9 peptide: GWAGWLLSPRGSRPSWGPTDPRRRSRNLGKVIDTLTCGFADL
Nature of the assay: capture EIA; Ab 62.5 ng/mL; bt-peptide 500 ng/mL.
Method: Assay wells were coated with sheep anti-mouse IgG Fc specific antibody and incubated overnight. The coating solution was then removed; the wells blocked using BSA/tween in PBS and then washed with dH2O. […] Next, biotin labeled peptides (diluted to 500 ng/mL in block) were added, the plates incubated for 10 minutes while shaking at 700 rpm and then washed. Peroxidase conjugated streptavidin (diluted to 200 ng/mL in block) was then added to all assay wells, incubated for 20 minutes while shaking at 700 rpm and then washed. Finally, color was developed using OPD and signal quenched using 1N H₂SO₄. Signal was read at 492 nm.

The target of assay [6] is T10, WT1STHV biotin labeled HCV core peptide (hepatitis C virus, biotin labeled (position not given)).
T10 peptide: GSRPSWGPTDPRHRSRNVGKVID
Briefly: capture EIA; Ab 62.5 ng/mL; bt-peptide 500 ng/mL.

Method for HCV core peptide 48: (§1) The coated plates were kept dry in a sealed foil pouch and stored at <10 degrees C. until ready for use. A peptide coated plate for each test antibody was blocked using 3% BSA in PBS with 0.5% Tween 20. The blocked plates were washed with distilled water and a 2 ug/mL solution of purified IgG from each test sample diluted in BSA block solution was added to each peptide coated well of the blocked plate and allowed to incubate at room temperature for at least one hour. Following incubation the plates were washed with distilled water. A 200 ng/mL solution of peroxidase labeled F(ab′)2 fragment goat anti-mouse IgG Fc fragment specific (Jackson Immunoresearch) in BSA block solution was added to all wells and incubated at room temperature for 30 minutes. The plates were washed with distilled water and o-phenylenediamine substrate was used as the chromagen to generate signal. Plates were read at 492 nm and the results were analyzed.
Method for HCV core peptide 49: as §1
Method for HCV core peptide 50: as §1
Method for HCV core peptide 52: as §1
Method for HCV core peptide 54: as §1

B1: Neo4 mouse monoclonal antibody (antibody, V domains shown)
VH: QIQLKESGPAVIKPSQSLSLTCIVSGFSITSSVYCWQWIRQPPGKGLEWMGRICYDGSVDYSPSITSRGTISRDTSLNKVFFQLSSVTNEDTAMYYCSRENHIDYYDTTYPSFDVWGAGTTVTVSS
VL: DIVLTQSPASLIVSLGQRATISCRASKSVNEYGYTYMHWYQQKPGLPPKLLIYLASNLDSGVPARFSGSGSGTDFTLNIHPVEEEDAATYYCQHSRELPYTFGGGTKLEIKR
notes: Mouse hybridoma antibody, isotype IgG1, purified with Protein G; also called HCV Neo4
Regarding B1, the “OD (A492 nm)” value is 0.04 OD with HCV core peptide 48; 0.05 OD with HCV core peptide 49; 1.03 OD in the assay with HCV core peptide 50; 0.93 OD with HCV core peptide 52; 1.01 OD with HCV core peptide 54. Moreover, the “signal at 492 nm” value in assay [1] came out at 0.139 A492; in [2], 1.11 A492; in assay [3], 0.0626 A492; in assay [4], 0.111 A492; in assay [5], 1.47 A492; in assay [6], 1.85 A492.
